This is an account of results in patent US20260008852A1 (CRYSTAL BIOSCIENCE, published 2026).

Where a chain is given by its changes, count along the chain named.

Sequences and labels used below:
B1: 40633p1.2.D7 IgG (antibody, V domains shown)
VH: EVQLLESGGSLVQPGGSLRLSCAASGFTFSSYWMSWVRQAPGKGLEWVSGISSSGSATYYADSVKGRFTISRDNSKNTLYLQMNSLRAEDTAVYYCARWNDYDIMDVWGQGTTVTVSS
VL: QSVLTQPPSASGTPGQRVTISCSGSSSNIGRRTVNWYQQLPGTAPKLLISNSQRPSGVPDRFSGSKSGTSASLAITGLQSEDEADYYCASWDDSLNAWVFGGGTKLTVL
B2: 40633p1.2.D11 IgG (antibody, V domains shown)
VH: EVQLESGGGLVQPGGSLRLSCAASGFTVSYYGMSWVRQAPGKGLEWVSAIKQDGSEKYYADSVKGRFTISRDNSKNTLYLQMNSLRAEDTAVYYCARHWNDYSNAMNVWGQGTTVTVSS
VL: QSVLTQPPSASGTPGQRVTISCSGSTSNIAIDFVNWYQQLPGTAPKLLIYTIDQRPSGVPDRFSGSKSGTSASLAISGLQSEDEAVYYCASWDASLNGWVFGRGTKLTVL
B3: 40633p1.2.D1 IgG (antibody, V domains shown)
VH: EVQLLESGGGLVQPGGSLRLSCAASGFTFDVYGMSWVRQAPGKGLEWVSAINWNGGSTYYADSVKGRFTISRDNSENTLYLQMNSLRAEDTAVYYCAKEKWKHFIYYGMDVWGQGTTVTVSS
VL: QSVLTQPASASGTPGQTVSISCSGSSSNIDSNTANWYQQLPGTAPKLLIYSNNQRPSGVPDRFSGSKSDTSASLAISGLQSEDEGDYYCSAWDDNLNGWLFGGGTKLTVL
B4: 40633p1.2.C3 IgG (antibody, V domains shown)
VH: EVQLLESGGGLVQPGGSLRLSCAASGFTVSYYGMSWVRQAPGKGLEWVSAIKQDGSEKYYADSVKGRFTISRDNSKNTLYLQMNSLRAEDTAVYYCARHWNDYSNAMNVWEQGTTVTVSS
VL: QSVLTQPPSASGTPGQRVTISCSGSNSNVGGNYVSWYQQLPGTAPKLLIYRNSQRPSGVPDRFSGSKSGTSASLAISGLQSEDEAVYYCASWDASLNGWVFGGGTKLTVL
B5: 40579p1.E5 (scFv, V domains shown)
VH: EVQLLESGGGLVQPGGSLRLSCAASGFTFSDDWMTWVRQAPGKGLEWVSAINWNGNSTHYADSVKGRFTVSRDNSKNTLYLQMNSLRAEDTAVYYCAKSRTTYYSSMDVWGQGTTVTVSS
VL: EIVLTQSPGTLSLSPGERATLSCRASQTVGSYLAWYQQKPGQAPRLLIYGASSRATGIPARFSGSGSGTDFTLTISSLQSEDFAVYYCQHYYDWPPYSFGGGTKVEIK
notes: Tested as scFv-Fc (Expi293 supernatant)
B6: 40579p1.G1 (scFv, V domains shown)
VH: EVQLLESGGGLVQPGGSLRLSCAASGFNFSSYWMSWVRQAPGKGLEWVSGISISYGGNAYYADSVKGRFTVSRDNSKNTLYLQMNSLRAEDTAVYYCGRDRSPYQYRSMDVWGQGTTVTVSS
VL: B5 VL with T28S, V29I, G30R, Y32D, D70E, H90Q, Y92N, D93N, Y97L, S98T
notes: as for B5
B7: 40579p1.H7 (scFv, V domains shown)
VH: B6 VH with G10D
VL: B5 VL with T28S, V29I, G30R, Y32D, D70E, H90Q, Y92N, D93N, Y97L, S98T
notes: as for B5
B8: 40633p1.1.A11 (scFv, V domains shown)
VH: B1 VH with S10D, S30N, S31T, S35N, S49A, S52N, S54K, S56G, A57V, R98D
VL: QSVLTQPPSASGTPGQTITISCSGSSSNVGRRTVNWYQQLPGTAPKLLIYTNAQRPSGVPDRFSGSKSGTSASLAISGLQSEDEADYYCATWDDSLNAWVFGGGTKLTVL
notes: as for B5
B9: 40633p1.2.C11 (scFv, V domains shown)
VH: B1 VH with S10G, S49A, S52N, S53R, S54N, S56G, A57S, K76E, M83V
VL: QSVLTQPSSASGTPGQRVTISCSGSSSNVGRRAVNWYQQLPGTAPKLLISNSQRPSGVPDRFSGSKSGTSASLAISGLQSEDEADYYCATWDASLNSWVFGGGTKLTVL
notes: as for B5
B10: 40511p1.1.A1 (scFv, V domains shown)
VH: DVQLVESGGGVVRPGESLRLSCAASGFTFSNYAMNWVRQAPGEGLEWVSRINYKGYNITYYADSVKGRFTISRDNSKNTLYLQMNSLRAEDTAVYYCAKSGSNSNNFFDYWGLGTLVTVSS
VL: EIVLTQSPGTLSVSPGERATLSCRASQSVNSKLAWYQQRPGQAPRLLIYDASSRATGIPDRFSGSGSGTDFTLTISRLEPEDFAVYYCQQYKNWPPLTFGGGTKVEIK
notes: as for B5
B11: 40579p1.F7 (scFv, V domains shown)
VH: B6 VH with N28T, S31D, W33Y
VL: EIVLTQSPGTLSLSPGERATLTCRASQSVGDFLAWYQQKPGQAPRLLIYGASTRAAGIPARFRGSGSGTDFTLTISSLQSEDFAVYYCQQYKNWPPLTFGGGTKVEIK
notes: as for B5
B12: 40579p1.H6 (scFv, V domains shown)
VH: EVQLLESGGGLVQPGGSLRLSCAASGFTVNNAWMSWVRQAPGKGLEWVSAISYGGSIYYADSVKGRFTISRDNSKNTLYLQMNSLRAEDTAVYYCAKHRSTTYNGMDVWGQGTTVTVSS
VL: B11 VL with T22S, D31S, S52N, A60D, S67N, K92Y, N93D
notes: as for B5

The first assay concerns the target T1, B7-H3 on CHO-K1 cells stably transfected with B7-H3 (GenScript #M00536) (UniProt Q5ZPR3 29-534, limits assumed).
T1 sequence (looked up): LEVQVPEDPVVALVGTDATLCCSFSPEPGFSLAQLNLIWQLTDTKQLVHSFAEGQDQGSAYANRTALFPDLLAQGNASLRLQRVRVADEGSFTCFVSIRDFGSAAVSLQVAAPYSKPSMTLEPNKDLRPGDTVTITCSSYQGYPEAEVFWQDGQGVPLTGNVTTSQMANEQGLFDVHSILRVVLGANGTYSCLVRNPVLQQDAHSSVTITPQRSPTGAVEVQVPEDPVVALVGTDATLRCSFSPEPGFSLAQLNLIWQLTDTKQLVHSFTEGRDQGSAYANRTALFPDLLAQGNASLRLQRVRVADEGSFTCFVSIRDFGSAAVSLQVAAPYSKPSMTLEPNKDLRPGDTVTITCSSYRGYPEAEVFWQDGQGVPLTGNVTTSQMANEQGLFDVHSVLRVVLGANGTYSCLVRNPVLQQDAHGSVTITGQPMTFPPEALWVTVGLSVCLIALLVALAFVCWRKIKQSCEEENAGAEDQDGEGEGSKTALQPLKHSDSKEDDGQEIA
The assay is described as follows: cell-based or functional assay.
As for B1, the “ADCC reporter assay, EC50 Value, CHOK1/B7-H3 cells” value (“ADCC reporter assay, EC50 Value” below) came out at 0.0213 µg/mL and the “ADCC reporter assay, Max RLU, CHOK1/B7-H3 cells” value (“ADCC reporter assay, Max RLU” for short) was determined as 820000 RLU.
For B2, the “ADCC reporter assay, EC50 Value” value was 0.107 µg/mL and the “ADCC reporter assay, Max RLU” value turned out to be 510000 RLU.
For the molecule B3, the “ADCC reporter assay, EC50 Value” value came out at 0.0216 µg/mL and the “ADCC reporter assay, Max RLU” value came to 676000 RLU.
Turning to B4, the “ADCC reporter assay, EC50 Value” value is 0.402 µg/mL and the “ADCC reporter assay, Max RLU” value came out at 490000 RLU.

In the next assay the target is T2, B7-H3 on B7-H3-expressing CHO cells (Genescript) (UniProt Q5ZPR3 29-534, limits assumed).
T2 construct: whole, on cells; also called CHO-K1/B7-H3; MFI B7-H3
T2 sequence (looked up): T1 sequence (looked up)
The assay is described as follows: flow cytometry, B7-H3-expressing CHO cells, 10 ug/ml. The protocol:
Binding of anti-B7-H3 antibodies to cell lines was assessed by flow cytometry. Briefly, approximately 1.5 e5 B7-H3-expressing CHO cells (Genescript) or parent CHO cells (ATCC) were resuspended in FACS buffer (PBS/1% BSA/0.01% NaN3) containing 10 μg/ml of anti-B7-H3 antibodies and incubated for 60 min on ice. […] Cells were then washed twice, resuspended in FACS buffer, and read on an Attune Flow Cytometer (Life Technologies). Data are expressed as Mean Fluorescent Intensities (MFI).
Background: A flow cytometer gives signals particle by particle.
Take B5: the “MFI @ 10 ug/ml” value turned out to be 89200 MFI.
Still for that read-out and setting: in the case of B6 it was 87100 MFI.
The same measure, in the same setting: in the case of B7 it was 74600 MFI; in that of B8, 64800 MFI; in that of B9, 18300 MFI.
For the molecule B10, the “MFI @ 10 ug/ml” value turned out to be 34100 MFI.
Still for that read-out and setting: in the case of B11 it was 64500 MFI; in that of B12, 67600 MFI.

A further assay concerns the target T3, His-tagged mouse B7-H3 (mouse, UniProt Q8VE98 29-244, limits assumed).
T3 construct: Bought His-tagged protein coated on the ELISA plate; also called mu B7-H3; murine B7-H3
T3 sequence (looked up): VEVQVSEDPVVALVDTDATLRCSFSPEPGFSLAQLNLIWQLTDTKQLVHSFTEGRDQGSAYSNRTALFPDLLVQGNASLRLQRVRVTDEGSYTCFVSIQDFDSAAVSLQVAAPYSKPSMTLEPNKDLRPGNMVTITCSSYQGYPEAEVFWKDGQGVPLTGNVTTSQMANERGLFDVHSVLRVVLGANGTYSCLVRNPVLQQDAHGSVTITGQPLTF
Put plainly: ELISA, coated His-tagged antigen, scFv-Fc 1 ug/ml. The protocol: (§1) The variable regions of heavy and light chains were cloned and assembled into a single chain Fv-Fc (ScFv-Fc) mammalian expression vector. Sanger sequencing was performed by GeneWiz and sequences were evaluated using DNASTAR Lasergene 15. Unique scFv-Fes were transiently expressed in Expi293 cells (Life Technologies, #A14527) grown in Expi293 Expression Medium (Life Technologies, #A1435101) after transfection using the ExpiFectamine transfection reagent and supplements (Life Technologies, #A14524). Cells were incubated for 3-5 days with shaking at 37° C. in a 5% CO2 humidified incubator.
A general note: ELISA stands for enzyme-linked immunosorbent assay.
Take B5: the “ELISA OD450 @ 1 ug/ml” value was found to be 1.44 OD450.
B6: the “ELISA OD450 @ 1 ug/ml” value is 1.79 OD450.
The same measure, in the same setting: in the case of B7 it was 1.92 OD450; in that of B8, 1.27 OD450.
With B10, the “ELISA OD450 @ 1 ug/ml” value was 1.02 OD450.
Still for that read-out and setting: then B11, with 1.53 OD450; and B12, with 1.17 OD450.

A further assay concerns the target T4, His-tagged cynomolgus monkey B7-H3 (cynomolgus monkey).
T4 chain: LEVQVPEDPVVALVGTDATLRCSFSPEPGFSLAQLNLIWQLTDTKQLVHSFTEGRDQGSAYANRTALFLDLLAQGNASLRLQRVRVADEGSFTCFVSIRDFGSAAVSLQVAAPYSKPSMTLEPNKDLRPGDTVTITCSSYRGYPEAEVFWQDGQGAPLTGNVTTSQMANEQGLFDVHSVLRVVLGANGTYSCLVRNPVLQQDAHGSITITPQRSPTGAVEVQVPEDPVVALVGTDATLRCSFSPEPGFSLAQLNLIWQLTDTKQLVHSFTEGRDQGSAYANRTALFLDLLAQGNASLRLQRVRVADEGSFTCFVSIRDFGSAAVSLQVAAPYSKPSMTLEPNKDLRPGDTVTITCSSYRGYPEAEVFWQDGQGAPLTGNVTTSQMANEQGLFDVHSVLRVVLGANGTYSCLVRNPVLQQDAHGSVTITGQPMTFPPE
Put plainly: ELISA, coated His-tagged antigen, scFv-Fc 1 ug/ml. The protocol: as §1
In the case of B5, the “ELISA OD450 @ 1 ug/ml” value was 2.17 OD450.
Same read-out and setting: in the case of B6 it was 1.73 OD450; in that of B7, 1.73 OD450.
Same read-out and setting: then B8, with 1.77 OD450; and B9, with 0.045 OD450; and B10, with 2.27 OD450.
Still for that read-out and setting: in the case of B11 it was 2.28 OD450; in that of B12, 1.7 OD450.

The target in a further assay is T5, His-tagged human B7-H3 (human, UniProt Q5ZPR3-2 29-245, limits assumed).
T5 construct: Bought His-tagged protein coated on the ELISA plate; also called hu B7-H3; CD276
T5 sequence (looked up): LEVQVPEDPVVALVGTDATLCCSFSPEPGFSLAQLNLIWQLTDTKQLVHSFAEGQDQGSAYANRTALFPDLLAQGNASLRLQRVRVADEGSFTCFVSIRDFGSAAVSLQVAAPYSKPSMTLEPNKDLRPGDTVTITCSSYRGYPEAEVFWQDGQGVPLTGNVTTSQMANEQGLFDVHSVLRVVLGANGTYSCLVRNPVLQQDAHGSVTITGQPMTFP
The assay is described as follows: ELISA, coated His-tagged antigen, scFv-Fc 1 ug/ml. The protocol: as §1
On to B5, for which the “ELISA OD450 @ 1 ug/ml” value came to 1.95 OD450.
The same measure, in the same setting: in the case of B6 it was 1.73 OD450; in that of B7, 1.86 OD450.
On the same count and under the same terms, in the case of B8 it was 2.08 OD450; in that of B10, 1.9 OD450; in that of B11, 2.02 OD450.
Still for that read-out and setting: in the case of B12 it was 1.49 OD450.

Another assay has as its target T5, His-tagged human B7-H3. The assay is described as follows: ELISA OD450 on hu B7-H3 over OD450 on mu B7-H3. The protocol:
as §1
For the molecule B5, the “hu:mu ratio” value worked out at 1.36.
On the same count and under the same terms, then B6, with 0.966; and B7, with 0.971.
On the same count and under the same terms, in the case of B8 it was 1.63.
On to B10, for which the “hu:mu ratio” value came to 1.87.
Consider B11, for which the “hu:mu ratio” value came out at 1.32.
Same read-out and setting: then B12, with 1.28.
